Molecular target: BMP receptors

Row | ALPase activity in MC3T3-E1 cells (times higher than the control group) | ALPase activity in C3H10T 1/2 cells (times higher than the control group) | Binder
1 | 3 | – | unmodified mature human MP52 (ligand) PLATRQGKRPSKNLKARCSRKALHVNFKDMGWDDWIIAPLEYEAFHCEGLCEFPLRSHLEPTNHAVIQTLMNSMDPESTPPTCCVPTRLSPISILFIDSANNVVYKQYEDMVVESCGCR
2 | – | 40 | recombinant mature human BMP-2 (ligand) QAKHKQRKRLKSSCKRHPLYVDFSDVGWNDWIVAPPGYHAFYCHGECPFPLADHLNSTNHAIVQTLVNSVNSKIPKACCVPTELSAISMLYLDENEKVVLKNYQDMVVEGCGCR

From patent US7132397B1
